Measurements from US20250269025A1 (AVENCELL THERAPEUTICS, published 2025).
One block for each binder: values may come before it. No end group written: not given here.

Experiments:
[1] = biological target: T1, human CD123-Fc (human, UniProt P26951 19-305, limits assumed); test: SPR, Biacore X100, human CD123-Fc on CM5 chip, 1:1 model; TM not purified monomer
T1 construct: Coupled to a CM5 sensor chip; also called soluble recombinant CD123; not shown: Fc part
T1 sequence (looked up): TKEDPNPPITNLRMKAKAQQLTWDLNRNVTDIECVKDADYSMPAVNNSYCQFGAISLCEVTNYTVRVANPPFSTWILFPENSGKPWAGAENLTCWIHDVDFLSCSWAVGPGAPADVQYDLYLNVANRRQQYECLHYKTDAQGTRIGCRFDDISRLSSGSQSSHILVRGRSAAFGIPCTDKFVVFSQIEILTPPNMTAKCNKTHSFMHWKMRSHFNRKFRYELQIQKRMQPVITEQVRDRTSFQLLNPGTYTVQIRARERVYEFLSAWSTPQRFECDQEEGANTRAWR
Experimental: (§1) Binding of different variants of the targeting module according to the invention was analyzed by SPR measurements using human CD123-Fc coupled to a CM5 sensor chip on a Biacore X100 device (FIG. 2). Targeting modules were purified monomer except for the targeting module according to SEQ ID No. 8. […] For data fitting and KD calculation a 1:1 binding model was applied.

[2] = biological target: T2, La epitope 5B9 (SEQ ID No. 28) fused to human Fc domain (human, also: fused to human Fc domain, order, isotype, linker not given here); test: SPR, Biacore X100, La epitope 5B9-human Fc on CM5 chip
T2 construct: Coupled to a CM5 sensor chip; not shown: human Fc domain
T2 chain: KPLPEVTDEY
Experimental: (§2) Furthermore, binding of different variants of the targeting module according to the invention was analyzed using the La epitope 5B9 (SEQ ID No. 28) fused to human Fc domain which was coupled to a CM5 sensor chip on a Biacore X100 device (FIG. 3). The targeting modules were purified monomers. The targeting modules were concentrated between 2.47 to 200 nM and measured in technical duplicates. For data fitting and KD calculation a two-state-reaction binding model was applied.

[3] = biological target: T3, CD123 on CD123 positive AML cells (Oci-AML3, Molm-13, MV4-11, primary AML cells) (human, UniProt P26951 19-378); test: cellular binding assay per table caption, Oci-AML3 cells; Oci-AML3 cells
T3 construct: whole, on cells; Endogenous CD123 on human AML cell lines; also called target antigen CD123

[4] = biological target: T3, CD123 on CD123 positive AML cells …; test: flow cytometry on Oci-AML3 cells, anti-His-PE detection. Half-maximal binding from a four-parameter fit of gMFI. Unit taken from the concentration axis [M]. The curve has no upper plateau in the range shown
Experimental: Cellular binding of CD123-binding targeting modules (TM) was tested on CD123 positive target cell lines Oci-AML3 and Molm-13: A) SEQ ID No. 5 to Oci-AML3, B) SEQ ID No. 9 to Oci-AML3, C) SEQ ID No. 4 to Molm-13 and D) SEQ ID No. 6 to Molm-13. The affinity of TMs was analyzed by flow cytometry. The TMs were titrated on an AML cell lines and then detected by a mouse anti-His-tag antibody conjugated to phycoerythrin.
Different concentrations of R-TM123 were incubated with cells, washed and quantified. A dose-response curve was obtained when the geometric mean fluorescence (MFI) was plotted against the TM concentration.

[5] = biological target: T1, human CD123-Fc; test: SPR, Biacore X100, human CD123-Fc on CM5 chip, 1:1 model
Experimental: as §1

[6] = biological target: T3, CD123 on CD123 positive AML cells …; test: cellular binding assay per table caption, Molm-13 cells; Molm-13 cells
[7] = biological target: T2, La epitope 5B9 (SEQ ID No. 28) fused to …; test: SPR, Biacore X100, La epitope 5B9-human Fc on CM5 chip; KD 5B9 (second number of the cell)
Experimental: as §2

[8] = biological target: T1, human CD123-Fc; test: SPR, Biacore X100, human CD123-Fc on CM5 chip, 1:1 model; KD CD123 (first number of the cell)
Experimental: as §1

Kd [1]: 0.131 nM
B1: targeting module according to SEQ ID No. 8 (bispecific antibody)
chain: GQVQLVQSGAEVKKPGASVKMSCKASGYTFTDYYMKWVKQAPGQGLEWIGDIIPSNGATFYNQKFKGRATLTVDKSTSTAYMELSSLRSEDTAVYYCTRSHLLRASWFAYWGQGTLVTVSSASGGGGSGGGGSGGGGSDFVMTQSPDSLAVSLGERATMNCKSSQSLLNSGNQKNYLTWYLQKPGQPPKLLIYWASTRESGVPDRFSGSGSGTDFTLTISSVQAEDVAVYYCQNDYSYPYTFGGGTKLEIKAAARGDIVMTQSPDSLAVSLGERATINCKSSQSLLNSRTPKNYLAWYQQKPGQPPKLLIYWASTRKSGVPDRFSGSGSGTDFTLTISSLQAEDVAVYYCKQSYNLLTFGGGTKVEIKGGGGSGGGGSGASAAGGGGSGGGGSQVQLVQSGAEVKKPGASVKVSCKASGYTFTHYYIYWVRQAPGQGLEWMGGVNPSNGGTHFNEKFKSRVTMTRDTSISTAYMELSRLRSDDTAVYYCARSEYDYGLGFAYWGQGTLVTVSSGGGGSHHHHHHHH
notes: also called huCD123_3 + 5B9-VLVH

Kd [2]: 2 nM
EC50 [3]: 23 nM
B2: targeting module according to SEQ ID No. 3 (bispecific antibody)
chain: GQVQLVQSGAEVKKPGSSVKVSCKASGYTFTDYYIHWVRQAPGQGLEWMGDIIPSNGATFYNQRFKGRVTITADESTSTAYMELSSLRSEDTAVYYCTRSHLLRASWFAYWGQGTLVTVSSASGGGGSGGGGSGGGGSDIVMTQTPLSLSVTPGQPASISCRSSQSLLNSGNQKNYLTWYLQKPGQSPQLLIYWASTRFIGVPDRFSGSGSGTDFTLKISRVEAEDVGVYYCQNDYSYPYTFGQGTKLEIKAAARGDIVMTQSPDSLAVSLGERATINCKSSQSLLNSRTPKNYLAWYQQKPGQPPKLLIYWASTRKSGVPDRFSGSGSGTDFTLTISSLQAEDVAVYYCKQSYNLLTFGGGTKVEIKGGGGSGGGGSGASAAGGGGSGGGGSQVQLVQSGAEVKKPGASVKVSCKASGYTFTHYYIYWVRQAPGQGLEWMGGVNPSNGGTHFNEKFKSRVTMTRDTSISTAYMELSRLRSDDTAVYYCARSEYDYGLGFAYWGQGTLVTVSSGGGGSHHHHHHHH
notes: also called huCD123_1 + 5B9-VL-VH

Kd [4]: 6.77 nM
Kd [5]: 0.162 nM
B3: targeting module according to SEQ ID No. 9 (bispecific antibody)
chain: EVQLVQSGAEVKKPGASVKMSCKASGYTFTDYYMKWVKQAPGQGLEWIGDIIPSNGATFYNQKFKGRATLTVDRSTSTAYMELSSLRSEDTAVYYCTRSHLLRASWFAYWGQGTLVTVSSASGGGGSGGGGSGGGGSDFVMTQSPDSLAVSLGERATINCESSQSLLNTGNQKNYLTWYLQKPGQPPKLLIYWASTRESGVPDRFSGSGSGTDFTLTISSVQAEDVAVYYCQNDYSYPYTFGGGTKLEIKAAARGDIVMTQSPDSLAVSLGERATINCKSSQSLLNSRTPKNYLAWYQQKPGQPPKLLIYWASTRKSGVPDRFSGSGSGTDFTLTISSLQAEDVAVYYCKQSYNLLTFGGGTKVEIKGGGGSGGGGSGASAAGGGGSGGGGSQVQLVQSGAEVKKPGASVKVSCKASGYTFTHYYIYWVRQAPGQGLEWMGGVNPSNGGTHFNEKFKSRVTMTRDTSISTAYMELSRLRSDDTAVYYCARSEYDYGLGFAYWGQGTLVTVSSGGGGSHHHHHHHH
notes: also called huCD123_4 + 5B9-VLVH

EC50 [6]: 0.0023 nM
Kd [7]: 17 nM
EC50 [3]: 0.0032 nM
Kd [8]: 0.227 nM
B4: targeting module according to SEQ ID No. 2 (reference) (bispecific antibody)
chain: EVQLQQSGPELVKPGASVKMSCKASGYTFTDYYMKWVKQSHGKSLEWIGDIIPSNGATFYNQKFKGKATLTVDRSSSTAYMHLNSLTSEDSAVYYCTRSHLLRASWFAYWGQGTLVTVSAASGGGGSGGGGSGGGGSDFVMTQSPSSLTVTAGEKVTMSCKSSQSLLNSGNQKNYLTWYLQKPGQPPKLLIYWASTRESGVPDRFTGSGSGTDFTLTISSVQAEDLAVYYCQNDYSYPYTFGGGTKLEIKAAARGQVQLVQSGAEVKKPGASVKVSCKASGYTFTHYYIYWVRQAPGQGLEWMGGVNPSNGGTHFNEKFKSRVTMTRDTSISTAYMELSRLRSDDTAVYYCARSEYDYGLGFAYWGQGTLVTVSSGGGGSGGGGSGGGGSDIVMTQSPDSLAVSLGERATINCKSSQSLLNSRTPKNYLAWYQQKPGQPPKLLIYWASTRKSGVPDRFSGSGSGTDFTLTISSLQAEDVAVYYCKQSYNLLTFGGGTKVEIKGPEQKLISEEDLNSAVDHHHHHH
notes: also called muCD123 + 5B9-VH-VL
